# The nanobody polyreactivity screen of Harvey et al. (2022)
# Test: yeast display, Sf9 membrane polyspecificity reagent, FACS + sequencing; frameworks hold sequencing errors
# Procedure, shortened: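 Galactose induction of a Saccharomyces cerevisiae BJ5465 synthetic nanobody display library ran 36–48 hours. The cells were then stained for 1 hour at 4 °C with 10% biotinylated, detergent-solubilized Sf9 membrane reagent, pulled down on streptavidin microbeads and FACS-sorted into low and high (top ~1%) gates on expression and reagent-binding fluorescence. Labels for polyreactivity follow the gate of origin.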
row,Sequence,polyreactivity (PSR sort gate)
1,QVQLVESGGGLVQAGGSLRLSCAASGRTFGEYAMGWYRQAPGKERELVADITNGSRTYYADSVKGRFTISRDNAKNTVYLQMNSLKPEDTAVYYCAADWWKEVDYWGQGTHVTVSS,low polyreactivity
2,QVQLVESGGGLVQAGGSLRLSCAASGRTFGFYAMGWYRQAPGKERELVAAISKRGGSTYYADSVKGRFTISRDNAKNTVYLQMNSLKPEDTAVYYCAAVGYYLVKFDYWGQGTQVTVSS,high polyreactivity
3,QVQLVESGGGLVQAGGSLRLSCAASGRTFGGNAMGWYRQAPGKERELVAAISARAGSTYYADSVKGRFTISRDNAKNTVYLQMNSLKPEDTAVYYCAARRYAYTGGYWGQGTQVTVSS,high polyreactivity
4,QVQLVESGGGLVQAGGSLRLSCAASGRTFGGNAMGWYRQAPGKERELVAAITWRGGSTYYADSVKGRFTISRDNAKNTVYLQMNSLKPEDTAVYYCNAVRTGKYVKYYRSIFDYWGQGTQVTVSS,high polyreactivity
5,QVQLVESGGGLVQAGGSLRLSCAASGRTFGGNAMGWYRQAPGKERELVAGINISGGSTNYADTVKGRFTISRDNAKNTVYLQMNSLKPEDTAVYYCNADTAVYAWDDDYWGQGTQVTVSS,low polyreactivity
6,QVQLVESGGGLVQAGGSLRLSCAASGRTFGGNAMGWYRQAPGKERELVATIRSSSSTNYADSVKGRFTISRDNAKNTVYLQMNSLKPEDTAVYYCARRSQRGIYSMYYWGQGSQVTVSS,low polyreactivity
7,QVQLVESGGGLVQAGGSLRLSCAASGRTFGGNAMGWYRQAPGKERELVAVIRSTGGSTYYADSVKGRFTISRDTAKNTVYVQMNSLKPEDTAVYYCAKGRGRNFGYWGQGTQVTVSS,high polyreactivity
8,QVQLVESGGGLVQAGGSLRLSCAASGRTFGGNAMGWYRQAPGKESELVAAISKSGGRTYYADSVKGRFTISRDNAKNTVYLQMNSLKPEDTAVYYCNKVLSVSQAGGFDYWGQGTQVTVSS,high polyreactivity
9,QVQLVESGGGLVQAGGSLRLSCAASGRTFGGYAMGWYRQAPGKERELDASITSGGSTYYADSVKGRFTISRDNAKNTVYLEMNSLKPEDTAVYYCAADTYFETSTRAIPSNAYWGQGTQVTVSS,low polyreactivity
10,QVQLVESGGGLVQAGGSLRLSCAASGRTFGGYAMGWYRQAPGKERELVAAITYSGGSTYYADSVKGRFTISRDNAKNTVYLQMNSLKPEDTAVYYCAAEGSSSYTYDYWGQGTQVTVSS,low polyreactivity
11,QVQLVESGGGLVQAGGSLRLSCAASGRTFGGYPMGWYRQAPGKERELVASINSGGSTYYADSVKGRFTISRDNAKNTVYLQMNSLKPEDTAVYYCAKRLGGRTLRKYGYWGQGTQVTVSS,high polyreactivity
12,QVQLVESGGGLVQAGGSLRLSCAASGRTFGIKAMGWYRQAHGKERELVAVISFGDGGTYYADSVKGRFTISRDNAKNTVYLQMNSLKPEDTAVYYCATDYQSTSVWGGHFVINPYDYWGQGTQVTLSS,low polyreactivity
13,QVQLVESGGGLVQAGGSLRLSCAASGRTFGINAMGWYRQAPGKERELVAVISFGDGGTYYADSVKGRFTISRDNAKNTVYLQMNSLKPEDTAVYYCAAAIWYIKLYFVRRTEHGYWGQGTQVTVSS,low polyreactivity
14,QVQLVESGGGLVQAGGSLRLSCAASGRTFGINAMGWYRQAPGKERELVAVISGSGGNTYYADSVKGRFTISRDNEKNTVYLQMNSLKPEDTAVYYCATRYEKFRYDYWGQGTQVTVSS,low polyreactivity
15,QVQLVESGGGLVQAGGSLRLSCAASGRTFGIYAMGWYRQAPGKERELVASITRSSGGTYYADSVKGRFTISRDNAKNTVYLQMNSLKPEDTAVYYCAARLQGRYKYGYWGQGTQVTVSS,high polyreactivity
16,QVQLVESGGGLVQAGGSLRLSCAASGRTFGKNAMGWYRQAPAKERELVAAISWGGGRTFYADSVKGRFTISRDNAKNTVYLQMNSLKPEDTAVYYCNAVQYPRRAKYDYWGQGTQVTVSS,low polyreactivity
17,QVQLVESGGGLVQAGGSLRLSCAASGRTFGKNAMGWYRQAPGKEREFVAAITSRGGSTYYADSVKGRFTISRDNAKNTVYLQMNSLIPEDTAFYYCNREYKRPSQRTEHYYWGQGTQVTVSS,low polyreactivity
18,QVQLVESGGGLVQAGGSLRLSCAASGRTFGKYAMGWYRQAPGKERELVAAISSGGTTYYADSVKGRFTISRDNAKNTVYLQMNSLKPEDTAVYYCAADPRYPYNYWGQGTQVTVSS,low polyreactivity
19,QVQLVESGGGLVQAGGSLRLSCAASGRTFGKYAMGWYRQAPGKERELVAVITWRGVSTYADSVKGRFTISRDNAKNTVYLQMNSLKPEDTSFYYCAKTRVRGTEFGYWGLGTQVTVSS,low polyreactivity
20,QVQLVESGGGLVQAGGSLRLSCAASGRTFGLNAMGWYRQATGKERELVAAITSGGSTYYADSVKGRFTISRDNAKKTVYLQMNSLKPEDTAVYYCAVTYNGDSSWPGDYWGQGTQVTVSS,low polyreactivity
21,QVQLVESGGGLVQAGGSLRLSCAASGRTFGLYAMGWYRQAPGKERELVADINGSGTRTYYADSVKGRFTISRDNAKNTVYLQMNSLKPEDTAVYYCYGRYHWLYYWGQGTQVTVSS,high polyreactivity
22,QVQLVESGGGLVQAGGSLRLSCAASGRTFGLYAMGWYRQAPGKVRELVAAISWGGGRTYYADSVKGRFSISRDNAKNSVYLQMNSLKPEDTAVYYCNAVYSPRDYVGGYDYWGQGTQVTVSS,high polyreactivity

row,Sequence,polyreactivity (PSR sort gate)
1,QVQLVESGGGLVQAGGSLRLSCAASGRTFGLYAMGWYRQSPGKERELVATISRGGSTYYADSVKGRFTISRDNAKNTVYLQMNSLKPEDTAVYYCNAAKYTWYYGYNYWGQGTKVTVSS,high polyreactivity
2,QVQLVESGGGLVQAGGSLRLSCAASGRTFGLYTMGWYRQAPGKERELVAAISRSGGSTYYADSVKGRFTISRDNAKNTVYLQMNSLKPEDTAVYYCATRRSFSDRYDYWGQGTQVTVSS,high polyreactivity
3,QVQLVESGGGLVQAGGSLRLSCAASGRTFGNNAMGRYRLAPGKVWELVAAINWSGASTYYADSVKGRFTISRDNAKNTVYLQMNSLKPEDTAVYYCAADYSYIYGFDYWGQGTQVTVSS,low polyreactivity
4,QVQLVESGGGLVQAGGSLRLSCAASGRTFGNNAMGWYRQAPGKERELVAAISRSGGSTYYADSVKGRFTISRDNAKNTVYLQMNSLKPEDTAVYYCAARLYGGYDWGQGTQVTVSS,high polyreactivity
5,QVQLVESGGGLVQAGGSLRLSCAASGRTFGPNGMGWYRQAPGKERELLAVITSSGGRTYYADSVKGRFTISRDNAKNTVYLQMNSLKPEDTAVYYCAADAKKFGGTKNAELDYWGQGTQVTVSS,low polyreactivity
6,QVQLVESGGGLVQAGGSLRLSCAASGRTFGPYAMGWYRQAPGKERELVAAITSSGGSTYYADSVKGRFTISRDNAKNTVYLQMNSLKPEDTAVYYCNNLYWRQSQDYDYWGQGTQVTVSS,low polyreactivity
7,QVQLVESGGGLVQAGGSLRLSCAASGRTFGQNAMGWYRQAPGKERELVAVISSRGGSTYYADSVKGRFTISRDNAKNTVYLQMNSLKPEDTAVYYCNTDAQSRQTIRTGYDSWGQGTQVTVSS,high polyreactivity
8,QVQLVESGGGLVQAGGSLRLSCAASGRTFGRNAMGWYRQAPGKERELVAAINSGGSTKYADSVKGRFTISRDNAKNTVYLQMNSLKPEDTSVYYCARRGGFSYYYWGQGTQVTVSS,high polyreactivity
9,QVQLVESGGGLVQAGGSLRLSCAASGRTFGRNAMGWYRQAPGKERELVAAITWSGVTTYYADSVKGRFTISRDNAKNTVYLQMNSLKPEDTAVYYCATGTLYSDGAIYGYWGQGTQVTVSS,low polyreactivity
10,QVQLVESGGGLVQAGGSLRLSCAASGRTFGRNAMGWYRQSPGKERELVAAISRSGASTYYADSVMGRFTLSRDNAKNTVYLQMNSLKPEDTAVYDCAARYSYYHGSAGFDYWGQGTQVTVSS,high polyreactivity
11,QVQLVESGGGLVQAGGSLRLSCAASGRTFGRNDMAWYRQAQGKERELVAGISIGGGTTYYADSVKGRFTISRDNAKNTVYLQMNSLKPEDTAVYYCAARSWSYLHRYGYWGQGTQVTVSS,high polyreactivity
12,QVQLVESGGGLVQAGGSLRLSCAASGRTFGRYAMGWYRQAPGKERELLARISYSGGSTYYADSVKGRFTISRDNAKNTDYLQMNSLKPEDTAVYYCAASFFGRFDPDRSYWGQGTQVTVSS,high polyreactivity
13,QVQLVESGGGLVQAGGSLRLSCAASGRTFGRYAMGWYRQAPGKERELVAAINKNGGSTFYADSVKGRFTISRDNAKNTVYLQMNSLKPEDTAVYYCNRTAYVRGYPPWGYDYWGQGTQVTVSS,low polyreactivity
14,QVQLVESGGGLVQAGGSLRLSCAASGRTFGRYAMGWYRQAPGKERELVASITSRGGSTYADSVKGRFTISRDNAKNTVYLQMNSLKPEDTAVYYCASRDKYRYWYAYWRQGTQVTVSS,high polyreactivity
15,QVQLVESGGGLVQAGGSLRLSCAASGRTFGRYAMGWYRQAPGKERELVATITSGGSTNYADSVKGRFTISRDNAKNTVYIQMKSMKPEDTAVYYCAAEFSPSRWAYSEGALRYYYWGQGTQVTVSS,low polyreactivity
16,QVQLVESGGGLVQAGGSLRLSCAASGRTFGRYAMGWYRQAPGKERELVAVINGGGSTYYADSVKGRFTISRDNAKNTVYLQMKSLKPEDTAVYYCNAGYYWGQGTQVTVSS,high polyreactivity
17,QVQLVESGGGLVQAGGSLRLSCAASGRTFGRYDMGWYRQAPGKERELVAAITGGVITTYADSVKGRFTISRDNAKNTVYLQMKSLKREDTAVYDCAARYNVFPSPHYYYWGQGTQVTVSS,low polyreactivity
18,QVQLVESGGGLVQAGGSLRLSCAASGRTFGRYVMGWYRQAPGKERELVAAIRSRGGSTYYADSVKGRFTISRDNAKNTVYLQMNSLKPEDTAVYYCNAVDRKPYRTYDYWGQGTQVTVSS,high polyreactivity
19,QVQLVESGGGLVQAGGSLRLSCAASGRTFGSNAMGWYRQAPGKERELVAAITKSGGGTYYADSVKGRFTISRDNAKNTVYLQMNSLKPEDTAVYYCAARRYARSGGALYPYDYWGQGSQVTVSS,high polyreactivity
20,QVQLVESGGGLVQAGGSLRLSCAASGRTFGSNLMGWYRQAPGKERELVADISVSGGSTNYADSVKGRFTISRDNAKNTVYVQLNSLNPEDTAVYYCAASQLSDWPPYYYDFDYWGQGTQVTVSS,low polyreactivity
21,QVQLVESGGGLVQAGGSLRLSCAASGRTFGSYAMGWYRQAPGKERELVAAITWSGTGTYYADSVKGRFTISRDNAKNTVYLQMNSLKPEDTAVYYCNTDRWYAYDWGQGTQVTVSS,high polyreactivity
